Reference: publication PMC9472616
pKd: −log10 of the molar value.

Columns and labels:
[1] = target: European mink ACE2 fused to mouse Fc (EmkACE2-mFc) (European mink); assay: SPR
[2] = target: American mink ACE2 fused to mouse Fc (AmkACE2-mFc) (American mink (Neovison vison)); assay: SPR

## SARS-CoV-2 WT RBD (from UniProt P0DTC2 319-541) (domain or fragment)
[1]
  pKd: 4.28
[2]
  pKd: 5.05
